The values below come from the RNAGym collection of RNA variant scans (doi:10.7554/elife.80360).

Sequences and labels used below:
B1: Twister Ribozyme (parent)
chain: AACACUGCCAAUGCCGGUCCCAAGCCCGGAUAAAAGUGGAGGGGGCGG

Variants of B1 are the subject of this data set. Kind of data set: self-cleavage, relative activity (ratio to wild type); higher = more cleavage; co-transcriptional.
Regarding C26A G28A, the self-cleavage turned out to be 0.168.
For C25G U31G, the self-cleavage came to 0.393.
As for G24U G41C, the figure is 0.0917; as for G24U G41A, 0.0908; as for C25U G44A, 0.811.
Take C25U G44U: the self-cleavage was determined as 0.809.
With G24A G44A the figure was 0.101; with G24A G44C, 0.0736.
With G24C G43C the figure was 0.0497; with G24C G43U, 0.0968; with C25G A34G, 0.124.
As for C25U G39A, the figure is 0.141; as for G24U C27U, 0.13; as for C26G U31A, 0.427.
For the variant C26G U31C, the self-cleavage turned out to be 0.165.
As for C25U C26G, the figure is 0.131; as for C25U C26U, 0.132.
As for C26G G41A, the figure is 0.128.
As for C25U U31G, the figure is 0.627; as for C25U U31A, 0.666.
As for C26A G48U, the self-cleavage amounted to 0.355.
As for C26A G48A, the figure is 0.304; as for C26A G48C, 0.434.
With C25G G36A the figure was 0.103.
In the case of C25G G36C, the self-cleavage is 0.0714.
For C25A G29A, the self-cleavage was 0.308.
As for C25A G29C, the figure is 0.0958; as for C25A G29U, 0.24; as for G24U U37C, 0.0947.
With G24U U37G the figure was 0.092; with C27A G39C, 0.0948; with C25G A30G, 0.625.
As for C25G A30U, the figure is 0.31.
On to C25G G29A, for which the self-cleavage worked out at 0.564.
On to C25A G42C, for which the self-cleavage worked out at 0.115.
As for C27A A32C, the figure is 0.484; as for C25U U37G, 0.332.
As for C25G A32U, the figure is 0.19; as for G24A A33G, 0.097.
With G24A A33C the figure was 0.0756; with C26G G44C, 0.149; with G24U G45A, 0.0796.
Regarding G24U G45C, the self-cleavage worked out at 0.0947.
With G24U G45U, the self-cleavage amounted to 0.091.
With C26G G45U the figure was 0.156; with G24A C25G, 0.0958; with C26G G38A, 0.0967.
As for C26G G38U, the figure is 0.0977; as for C26A G42U, 0.109.
For the variant G24A C26G, the self-cleavage was 0.0568.
With G24A C26A, the self-cleavage turned out to be 0.123.
With C25U G38A the figure was 0.581; with C26A G39C, 0.0938; with C26U A34C, 0.133.
For the variant C26U A34U, the self-cleavage is 0.124.
With G24A A40C the figure was 0.105; with C25U G45U, 0.592; with C25U G45A, 0.587.
In the case of C25A G45C, the self-cleavage came out at 0.0975.
With C25A G45A the figure was 0.0857; with C25G A35U, 0.299.
Take G24C G39U: the self-cleavage was 0.0664.
With G24C G39A the figure was 0.0888; with G24A G47C, 0.11.
As for C26A A35U, the figure is 0.732.
With C26A A35G the figure was 0.219.
For C25G C26U, the self-cleavage was found to be 0.0513.
With C25G C26G the figure was 0.0826; with C25U A34U, 0.633; with C26G A35U, 0.497.
With G24U G28A the figure was 0.0754.
With G24U G28C, the self-cleavage was 0.0992.
With C25U A35G the figure was 0.46.
C25U A35U: the self-cleavage came out at 0.764.
Take G24A C27U: the self-cleavage was 0.106.
As for C26G U37C, the figure is 0.0957.
With C26G U37A the figure was 0.126; with C26G U37G, 0.115.
With G24C C46U, the self-cleavage was 0.126.
In the case of G24C C46G, the self-cleavage amounted to 0.105.
As for G24A C46G, the figure is 0.0598.
With G24C G47C the figure was 0.0946; with G24C G47A, 0.0965.
Turning to C26A G47U, the self-cleavage turned out to be 0.144.
As for G24U G47U, the figure is 0.0704; as for G24U G47A, 0.094.
G24A U37A: the self-cleavage came to 0.0684.
Take G24A G29C: the self-cleavage was 0.0767.
For C26G G28A, the self-cleavage stood at 0.101.
Take C26U G41A: the self-cleavage was 0.109.
As for C27A A40C, the figure is 0.155; as for C25U G28C, 0.412; as for C25U G28U, 0.724.
With G24A A34G the figure was 0.0576; with C27A A33C, 0.245.
C27A A33G: the self-cleavage worked out at 0.294.
As for C27A A33U, the figure is 0.334.
As for C26A C46A, the figure is 0.338; as for G24C C25U, 0.114.
With G24A G42A, the self-cleavage was determined as 0.0855.
With C27A G29A the figure was 0.382.
On to C27A G29C, for which the self-cleavage stood at 0.0808.
As to C27A G29U, the self-cleavage amounted to 0.132.
For the variant C26G G48U, the self-cleavage amounted to 0.146.
As for C26G G48C, the figure is 0.229.
For the variant C27A G47C, the self-cleavage amounted to 0.183.
Consider C26U G36C, for which the self-cleavage came to 0.129.
As for G24U C25U, the figure is 0.0725.
As for G24U C25A, the figure is 0.115.
With G24U C25G the figure was 0.104; with C25A G47U, 0.0657; with C25A G47C, 0.0869.
On to C27A G36U, for which the self-cleavage amounted to 0.128.
For the variant C27A G36A, the self-cleavage was determined as 0.121.
As for C27A G36C, the self-cleavage came out at 0.123.
With G24C U37A the figure was 0.107.
With C25U A32G the figure was 0.804; with C25U A32C, 0.903; with G24U G42A, 0.0906.
With G24U G42C the figure was 0.0781.
Regarding C25U G36A, the self-cleavage is 0.263.
Consider C25G C46A, for which the self-cleavage was found to be 0.148.
As for C25G C46G, the self-cleavage stood at 0.223.
With C26U G44C the figure was 0.172; with C26A A40U, 0.107; with C26A A40C, 0.119.
With C26G G39A the figure was 0.0939.
For the variant G24C G42C, the self-cleavage stood at 0.0931.
With G24C G42A, the self-cleavage was found to be 0.105.
As to G24C G42U, the self-cleavage worked out at 0.0759.
As for C26G G36C, the figure is 0.0652; as for G24U C26G, 0.0895; as for G24U C26A, 0.0928.
In the case of G24U C26U, the self-cleavage stood at 0.122.
For the variant G24A G41U, the self-cleavage amounted to 0.082.
Turning to G24A G41C, the self-cleavage stood at 0.0854.
With C26U U31C the figure was 0.495; with C26U U31G, 0.503; with C27A G42C, 0.139.
As for C27A G42U, the figure is 0.113; as for G24C C26G, 0.0413.
Regarding C26G A33U, the self-cleavage worked out at 0.135.
With C26G A33G the figure was 0.154; with G24U U31A, 0.113.
As for C25A G39A, the figure is 0.0801; as for C25A G39C, 0.0833.
For the variant C25A G39U, the self-cleavage is 0.115.
As for C25U G48U, the figure is 0.813; as for C26A C27A, 0.173; as for G24C G48C, 0.116.
On to G24C G48U, for which the self-cleavage worked out at 0.0846.
With G24C G48A the figure was 0.0988; with G24U A32G, 0.113; with G24U A32U, 0.0649.
For C26U U37A, the self-cleavage is 0.121.
Regarding C25A A32G, the self-cleavage came to 0.0602.
For the variant C25A A32U, the self-cleavage came to 0.078.
For the variant C25A C27A, the self-cleavage is 0.0772.
Consider G24A G45A, for which the self-cleavage is 0.122.
With C25G G39C, the self-cleavage came out at 0.109.
On to C25G G39U, for which the self-cleavage was 0.121.
As for C25U G47A, the figure is 0.663; as for C25U G47C, 0.248.
In the case of C27A G41C, the self-cleavage stood at 0.152.
On to C27A G41U, for which the self-cleavage came to 0.0984.
With C25G C27U the figure was 0.136; with C25G C27G, 0.0774.
